Experimental data: article PMC5692591

Key:
[1] = biological target: FpvAI (ferripyoverdine transporter of P. aeruginosa PAO1), recombinant (P. aeruginosa PAO1); assay: ITC
[2] = biological target: TonB1 periplasmic domain (residues 109–342) (P. aeruginosa); assay: ITC
[3] = biological target: FpvAI (ferripyoverdine transporter of P. aeruginosa PAO1), recombinant (P. aeruginosa PAO1)

Row | Substance | Kd [1] | dH [1] | stoichiometry N [1] | Kd [2] | fold decrease of binding against pyoS2^NTD [3]
1 | N-terminal domain of pyocin S2 (pyoS2^NTD), residues 1–209 (from UniProt Q06584 1-209) (domain or fragment) | 0.24 nM | -15.8 kcal/mol | 0.78 sites | 1000 nM | –
2 | Δ1–45 pyoS2^NTD (from UniProt Q06584 46-209) (domain or fragment) | – | – | – | – | 1000 fold
